From IntAct's records for PubMed 31515488

B1: Cyclin-D1-binding protein 1 (Homo sapiens), O95273 (parent)
chain: MASATAPAAAVPTLASPLEQLRHLAEELRLLLPRVRVGEAQETTEEFNREMFWRRLNEAAVTVSREATTLTIVFSQLPLPSPQETQKFCEQVHAAIKAFIAVYYLLPKDQGITLRKLVRGATLDIVDGMAQLMEVLSVTPTQSPENNDLISYNSVWVACQQMPQIPRDNKAAALLMLTKNVDFVKDAHEEMEQAVEECDPYSGLLNDTEENNSDNHNHEDDVLGFPSNQDLYWSEDDQELIIPCLALVRASKACLKKIRMLVAENGKKDQVAQLDDIVDISDEISPSVDDLALSIYPPMCHLTVRINSAKLVSVLKKALEITKASHVTPQPEDSWIPLLINAIDHCMNRIKELTQSELEL
partner: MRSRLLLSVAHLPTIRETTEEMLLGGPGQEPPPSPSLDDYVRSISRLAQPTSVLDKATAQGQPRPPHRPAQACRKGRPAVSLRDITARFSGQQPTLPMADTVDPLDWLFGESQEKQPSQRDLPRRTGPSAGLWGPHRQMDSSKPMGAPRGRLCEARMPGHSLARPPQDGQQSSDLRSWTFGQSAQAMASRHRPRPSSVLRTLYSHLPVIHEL
B2: Tuftelin-interacting protein 11 (Homo sapiens), Q9UBB9 (parent)
chain: MSLSHLYRDGEGRIDDDDDERENFEITDWDLQNEFNPNRQRHWQTKEEATYGVWAERDSDDERPSFGGKRARDYSAPVNFISAGLKKGAAEEAELEDSDDEEKPVKQDDFPKDFGPRKLKTGGNFKPSQKGFAGGTKSFMDFGSWERHTKGIGQKLLQKMGYVPGRGLGKNAQGIINPIEAKQRKGKGAVGAYGSERTTQSMQDFPVVDSEEEAEEEFQKELSQWRKDPSGSKKKPKYSYKTVEELKAKGRISKKLTAPQKELSQVKVIDMTGREQKVYYSYSQISHKHNVPDDGLPLQSQQLPQSGKEAKAPGFALPELEHNLQLLIDLTEQEIIQNDRQLQYERDMVVNLFHELEKMTEVLDHEERVISNLSKVLEMVEECERRMQPDCSNPLTLDECARIFETLQDKYYEEYRMSDRVDLAVAIVYPLMKEYFKEWDPLKDCTYGTEIISKWKSLLENDQLLSHGGQDLSADAFHRLIWEVWMPFVRNIVTQWQPRNCDPMVDFLDSWVHIIPVWILDNILDQLIFPKLQKEVENWNPLTDTVPIHSWIHPWLPLMQARLEPLYSPIRSKLSSALQKWHPSDSSAKLILQPWKDVFTPGSWEAFMVKNIVPKLGMCLGELVINPHQQHMDAFYWVIDWEGMISVSSLVGLLEKHFFPKWLQVLCSWLSNSPNYEEITKWYLGWKSMFSDQVLAHPSVKDKFNEALDIMNRAVSSNVGAYMQPGARENIAYLTHTERRKDFQYEAMQERREAENMAQRGIGVAASSVPMNFKDLIETKAEEHNIVFMPVIGKRHEGKQLYTFGRIVIYIDRGVVFVQGEKTWVPTSLQSLIDMAK
partner: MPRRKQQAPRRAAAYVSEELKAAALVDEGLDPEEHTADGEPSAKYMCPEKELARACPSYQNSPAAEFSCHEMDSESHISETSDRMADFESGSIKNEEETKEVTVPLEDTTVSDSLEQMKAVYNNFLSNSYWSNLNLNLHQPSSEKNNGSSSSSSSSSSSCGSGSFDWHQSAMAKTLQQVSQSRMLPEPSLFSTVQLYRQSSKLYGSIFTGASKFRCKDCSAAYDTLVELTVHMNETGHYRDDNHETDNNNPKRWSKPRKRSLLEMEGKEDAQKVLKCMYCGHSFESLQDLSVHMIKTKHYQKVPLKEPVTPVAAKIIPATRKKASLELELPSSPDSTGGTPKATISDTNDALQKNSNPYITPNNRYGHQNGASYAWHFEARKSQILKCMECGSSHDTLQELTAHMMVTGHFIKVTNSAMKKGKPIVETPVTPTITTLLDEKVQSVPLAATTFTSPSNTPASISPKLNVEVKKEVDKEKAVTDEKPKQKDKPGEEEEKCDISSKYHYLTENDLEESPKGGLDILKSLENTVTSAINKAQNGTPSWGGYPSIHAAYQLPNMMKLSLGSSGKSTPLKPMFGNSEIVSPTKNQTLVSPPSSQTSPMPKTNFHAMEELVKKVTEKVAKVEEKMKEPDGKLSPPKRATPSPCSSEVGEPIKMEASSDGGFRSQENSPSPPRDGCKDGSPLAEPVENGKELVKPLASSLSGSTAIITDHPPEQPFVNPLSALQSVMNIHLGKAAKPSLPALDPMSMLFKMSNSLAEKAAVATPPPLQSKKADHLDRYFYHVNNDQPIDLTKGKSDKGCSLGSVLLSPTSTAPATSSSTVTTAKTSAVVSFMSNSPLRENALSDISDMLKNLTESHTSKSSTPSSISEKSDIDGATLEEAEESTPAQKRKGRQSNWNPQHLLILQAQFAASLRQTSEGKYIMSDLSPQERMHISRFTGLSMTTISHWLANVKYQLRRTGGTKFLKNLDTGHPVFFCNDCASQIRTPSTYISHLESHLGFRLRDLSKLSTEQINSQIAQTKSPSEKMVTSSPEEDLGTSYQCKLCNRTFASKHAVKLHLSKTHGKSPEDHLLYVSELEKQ
B3: Tuftelin-interacting protein 11 (Homo sapiens), Q9UBB9 (parent)
chain: B2 chain
partner: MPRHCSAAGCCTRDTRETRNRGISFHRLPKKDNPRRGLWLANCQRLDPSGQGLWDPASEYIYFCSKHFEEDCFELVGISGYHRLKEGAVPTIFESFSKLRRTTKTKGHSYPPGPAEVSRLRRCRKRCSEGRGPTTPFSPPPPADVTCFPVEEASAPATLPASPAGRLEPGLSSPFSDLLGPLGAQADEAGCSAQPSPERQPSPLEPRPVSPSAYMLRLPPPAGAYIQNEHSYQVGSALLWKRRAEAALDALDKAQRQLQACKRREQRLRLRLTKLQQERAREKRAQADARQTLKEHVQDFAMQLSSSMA
B4: Carbonyl reductase [NADPH] 3 (Homo sapiens), O75828 (parent)
chain: MSSCSRVALVTGANRGIGLAIARELCRQFSGDVVLTARDVARGQAAVQQLQAEGLSPRFHQLDIDDLQSIRALRDFLRKEYGGLNVLVNNAAVAFKSDDPMPFDIKAEMTLKTNFFATRNMCNELLPIMKPHGRVVNISSLQCLRAFENCSEDLQERFHSETLTEGDLVDLMKKFVEDTKNEVHEREGWPNSPYGVSKLGVTVLSRILARRLDEKRKADRILVNACCPGPVKTDMDGKDSIRTVEEGAETPVYLALLPPDATEPQGQLVHDKVVQNW
B5: BTB/POZ domain-containing protein KCTD6 (Homo sapiens), Q8NC69 (parent)
chain: MDNGDWGYMMTDPVTLNVGGHLYTTSLTTLTRYPDSMLGAMFGGDFPTARDPQGNYFIDRDGPLFRYVLNFLRTSELTLPLDFKEFDLLRKEADFYQIEPLIQCLNDPKPLYPMDTFEEVVELSSTRKLSKYSNPVAVIITQLTITTKVHSLLEGISNYFTKWNKHMMDTRDCQVSFTFGPCDYHQEVSLRVHLMEYITKQGFTIRNTRVHHMSERANENTVEHNWTFCRLARKTDD
B6: Paraneoplastic antigen Ma2 (Homo sapiens), Q9UL42 (parent)
chain: MALALLEDWCRIMSVDEQKSLMVTGIPADFEEAEIQEVLQETLKSLGRYRLLGKIFRKQENANAVLLELLEDTDVSAIPSEVQGKGGVWKVIFKTPNQDTEFLERLNLFLEKEGQTVSGMFRALGQEGVSPATVPCISPELLAHLLGQAMAHAPQPLLPMRYRKLRVFSGSAVPAPEEESFEVWLEQATEIVKEWPVTEAEKKRWLAESLRGPALDLMHIVQADNPSISVEECLEAFKQVFGSLESRRTAQVRYLKTYQEEGEKVSAYVLRLETLLRRAVEKRAIPRRIADQVRLEQVMAGATLNQMLWCRLRELKDQGPPPSFLELMKVIREEEEEEASFENESIEEPEERDGYGRWNHEGDD
partner: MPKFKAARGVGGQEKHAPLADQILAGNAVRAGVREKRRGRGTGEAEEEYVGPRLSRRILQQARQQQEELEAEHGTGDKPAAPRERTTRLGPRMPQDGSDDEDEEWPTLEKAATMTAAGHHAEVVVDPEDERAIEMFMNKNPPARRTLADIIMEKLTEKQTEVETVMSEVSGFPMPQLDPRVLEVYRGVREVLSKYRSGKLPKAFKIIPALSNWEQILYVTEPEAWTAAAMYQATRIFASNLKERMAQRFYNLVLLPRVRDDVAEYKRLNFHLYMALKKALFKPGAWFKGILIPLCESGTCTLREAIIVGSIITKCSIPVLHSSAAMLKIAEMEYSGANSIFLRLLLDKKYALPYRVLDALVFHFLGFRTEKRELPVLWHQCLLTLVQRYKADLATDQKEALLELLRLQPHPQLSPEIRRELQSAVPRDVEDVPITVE
B7: Trichoplein keratin filament-binding protein (Homo sapiens), Q9BT92 (parent)
chain: MALPTLPSYWCSQQRLNQQLARQREQEARLRQQWEQNSRYFRMSDICSSKQAEWSSKTSYQRSMHAYQREKMKEEKRRSLEARREKLRQLMQEEQDLLARELEELRLSMNLQERRIREQHGKLKSAKEEQRKLIAEQLLYEHWKKNNPKLREMELDLHQKHVVNSWEMQKEEKKQQEATAEQENKRYENEYERARREALERMKAEEERRQLEDKLQAEALLQQMEELKLKEVEATKLKKEQENLLKQRWELERLEEERKQMEAFRQKAELGRFLRHQYNAQLSRRTQQIQEELEADRRILQALLEKEDESQRLHLARREQVMADVAWMKQAIEEQLQLERAREAELQMLLREEAKEMWEKREAEWARERSARDRLMSEVLTGRQQQIQEKIEQNRRAQEESLKHREQLIRNLEEVRELARREKEESEKLKSARKQELEAQVAERRLQAWEADQQEEEEEEEARRVEQLSDALLQQEAETMAEQGYRPKPYGHPKIAWN
partner: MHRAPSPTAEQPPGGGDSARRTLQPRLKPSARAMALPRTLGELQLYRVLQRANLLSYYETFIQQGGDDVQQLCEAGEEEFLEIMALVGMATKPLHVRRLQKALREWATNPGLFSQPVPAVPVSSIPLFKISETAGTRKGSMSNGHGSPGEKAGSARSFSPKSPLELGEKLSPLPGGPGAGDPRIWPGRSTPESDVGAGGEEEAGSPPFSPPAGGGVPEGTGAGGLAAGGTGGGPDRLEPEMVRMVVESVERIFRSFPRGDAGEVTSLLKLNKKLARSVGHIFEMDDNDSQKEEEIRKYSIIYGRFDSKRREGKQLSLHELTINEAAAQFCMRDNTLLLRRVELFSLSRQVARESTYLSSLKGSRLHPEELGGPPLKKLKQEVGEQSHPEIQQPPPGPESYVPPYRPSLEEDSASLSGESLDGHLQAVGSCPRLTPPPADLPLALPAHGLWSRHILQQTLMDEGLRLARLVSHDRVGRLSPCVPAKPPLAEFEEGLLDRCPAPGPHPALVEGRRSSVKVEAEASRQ
B8: Breast cancer metastasis-suppressor 1 (Homo sapiens), Q9HCU9 (parent)
chain: MPVQPPSKDTEEMEAEGDSAAEMNGEEEESEEERSGSQTESEEESSEMDDEDYERRRSECVSEMLDLEKQFSELKEKLFRERLSQLRLRLEEVGAERAPEYTEPLGGLQRSLKIRIQVAGIYKGFCLDVIRNKYECELQGAKQHLESEKLLLYDTLQGELQERIQRLEEDRQSLDLSSEWWDDKLHARGSSRSWDSLPPSKRKKAPLVSGPYIVYMLQEIDILEDWTAIKKARAAVSPQKRKSDGP

Variants of: B1
Conditions: with depp1_human DEPP1, Q9NTK1

| effect of a mutation on the interaction | Variant |
| --- | --- |
| disrupting interaction strength | I277T |

Variants of: B2
Conditions: with tsh3_human TSHZ3, Q63HK5

| effect of a mutation on the interaction | Variant |
| --- | --- |
| with no effect | R8Q |
| with no effect | S688L |

Variants of: B3
Conditions: with thap7_human THAP7, Q9BT49

| effect of a mutation on the interaction | Variant |
| --- | --- |
| with no effect | R8Q |
| with no effect | S688L |

Variants of: B4
Conditions: with sdcb1_human SDCBP

| effect of a mutation on the interaction | Variant |
| --- | --- |
| with no effect | P131S |
| with no effect | V244M |

Variants of: B5
Conditions: with prp31_human PRPF31, Q8WWY3
prp31_human PRPF31, Q8WWY3, sequence (Q8WWY3 whole entry): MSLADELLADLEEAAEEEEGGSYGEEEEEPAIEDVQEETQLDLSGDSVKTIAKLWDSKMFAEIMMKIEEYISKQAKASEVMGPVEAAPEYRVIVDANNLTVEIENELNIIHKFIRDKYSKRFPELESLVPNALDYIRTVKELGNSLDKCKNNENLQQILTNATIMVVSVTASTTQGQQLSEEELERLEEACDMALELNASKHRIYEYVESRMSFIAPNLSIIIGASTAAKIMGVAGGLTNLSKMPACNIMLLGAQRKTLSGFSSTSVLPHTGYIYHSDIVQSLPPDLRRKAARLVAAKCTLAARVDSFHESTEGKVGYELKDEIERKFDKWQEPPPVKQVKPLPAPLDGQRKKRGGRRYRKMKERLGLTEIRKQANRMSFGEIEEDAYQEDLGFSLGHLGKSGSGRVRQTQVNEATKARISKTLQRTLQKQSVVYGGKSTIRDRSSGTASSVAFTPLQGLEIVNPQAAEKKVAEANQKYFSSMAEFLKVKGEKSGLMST

| effect of a mutation on the interaction | Variant |
| --- | --- |
| with no effect | N207S |

Variants of: B5
Conditions: with echp_human EHHADH

| effect of a mutation on the interaction | Variant |
| --- | --- |
| with no effect | N207S |

Variants of: B6
Conditions: with byst_human BYSL

| effect of a mutation on the interaction | Variant |
| --- | --- |
| with no effect | E186K |

Variants of: B7
Conditions: with nab2_human NAB2, Q15742

| effect of a mutation on the interaction | Variant |
| --- | --- |
| with no effect | K127R |

Variants of: B8
Conditions: with cep70_human CEP70, Q8NHQ1
cep70_human CEP70, Q8NHQ1, sequence (Q8NHQ1 whole entry): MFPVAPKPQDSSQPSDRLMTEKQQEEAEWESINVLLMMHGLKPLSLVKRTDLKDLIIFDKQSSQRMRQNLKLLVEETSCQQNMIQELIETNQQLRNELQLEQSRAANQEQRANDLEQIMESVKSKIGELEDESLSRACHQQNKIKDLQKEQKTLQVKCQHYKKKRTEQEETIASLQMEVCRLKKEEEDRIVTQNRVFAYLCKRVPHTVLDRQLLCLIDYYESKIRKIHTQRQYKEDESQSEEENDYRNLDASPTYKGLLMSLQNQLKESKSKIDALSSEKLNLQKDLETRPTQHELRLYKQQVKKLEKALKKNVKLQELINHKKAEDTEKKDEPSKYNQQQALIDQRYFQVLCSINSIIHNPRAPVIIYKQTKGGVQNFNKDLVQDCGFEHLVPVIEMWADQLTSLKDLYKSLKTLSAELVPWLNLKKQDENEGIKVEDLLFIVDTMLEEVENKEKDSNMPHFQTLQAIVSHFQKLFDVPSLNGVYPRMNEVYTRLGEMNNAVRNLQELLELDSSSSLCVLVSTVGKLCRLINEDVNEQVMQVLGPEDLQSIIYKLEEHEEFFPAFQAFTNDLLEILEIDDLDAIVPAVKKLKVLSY

| effect of a mutation on the interaction | Variant |
| --- | --- |
| with no effect | S7G |
